Laboratory results from patent publication US20250210128A1, “COMPUTER-IMPLEMENTED DESIGN OF PEPTIDE:RECEPTOR SIGNALING COMPLEXES FOR ENHANCED CHEMOTAXIS” (Ecole Polytechnique Federale de Lausanne (EPFL), priority 2022, published 2025).
Substitutions are numbered along the chain they refer to. Numbers in names are those of the source. One block for each molecule: values may come before it.

Assays:
CXCR4 [1] = target: T1, CXCR4 (Homo sapiens, UniProt P61073, L41A); assay: Calcium mobilization assay in transfected HEK 293T cells; type: cell-based; details: peptide-induced, point mutation, FIG. 15A
T1 construct: WT CXCR4 with an N-terminal 3×HA-tag, Gβ3-WT, and GNA15 sub-cloned into pcDNA3.1+ were obtained from the cDNA Resource Center; host or cells: HEK 293T
Protocol: (§1) 40,000 HEK 293T cells were transiently transfected with 50 ng HA3-CXCR4, 10 ng GNA15 in pcDNA3.1+. To equalize receptor surface expression, 75 ng of HA3-CXCR4 for the Cdes2 Design variant. Cells were first seeded in 100 uL DMEM (Gibco, ref: 41965-039) 10% FBS in a black-walled, clear-bottom 96-well plate coated with poly-lysine (Sigma, P6407-5MG). Directly after cell loading, 50 uL of the mixture containing 0.5 μL Lipofectamine 2000 (Invitrogen, ref: 11668-019) and the DNA was added on top of the cells. The cells were then left to incubate at 37° C., 5% CO2, 95% relative humidity for 20 h, after which, media was refreshed with 150 uL DMEM+10% FBS. Cells were assayed 48 h post-transfection. Cells were washed with 200 μL FLIPR6 buffer (HBSS+20 mM HEPES, pH 7.4), then incubated at 37° C., 5% CO2, 95% relative humidity for 2 h in 200 μL dye buffer according to manufacturer's protocol. Just before the assay, 5× concentrated peptide solutions were prepared in FLIPR6 buffer in a V-bottom 96-well plate. After incubation, peptide solutions were added at a rate of 16 μL/s after 30 s and fluorescence changes were monitored for 90 s after addition using microplate reader FlexStation3 (Molecular Devices). The maximum response after correction by the mock-transfected condition was averaged from three replicates. […]

CXCR4 [2] = target: T2, CXCR4 (Homo sapiens, UniProt P61073, N37A/S285M/Y45F); assay: Gαi dissociation BRET (Gi activation) in transfected HEK 293T cells; type: cell-based; details: HEK cells; cell based assays reporting Gi activation and Ca2+ mobilization
T2 construct: WT CXCR4 with an N-terminal 3×HA-tag, Gβ3-WT, and GNA15 sub-cloned into pcDNA3.1+ were obtained from the cDNA Resource Center; host or cells: HEK 293T
Protocol: (§2) 40,000 HEK 293T cells were transiently transfected with HA3-CXCR4, Gαi1-91-Rluc8, Gβ3-WT and Gγ9-GFP2 in pcDNA3.1+ at a ratio of 10:1:10:5 respectively. Cells were first seeded in 100 μL DMEM 10% FBS in a poly-lysine coated, white-walled, white-bottom 96-well plate. Directly after cell loading, 50 μL of the mixture containing Lipofectamine 2000 and the DNA was added on top of the cells. The cells were then left to incubate at 37° C., 5% CO2, 95% relative humidity for 20 h, after which, 150 μL media was refreshed. Cells were assayed 48 h post-transfection. Cells were washed with 150 μL PBS, then 40 μL BRET buffer (HBSS, 0.2% Glucose) was added to each well. Coelenterazine 400a was first added at a final concentration of 2.5 μM and BRET ratios were measured once using Mithras^2 LB 943 plate reader. After the first measurement, […] agonist solution was added to each well and BRET ratios were measured for another 30 min using Mithras^2 LB 943 plate reader. Mock-transfected controls were subtracted from the data. Maximum values were then plotted against selected concentrations and fitted to a sigmoidal curve. (n=3, SD plotted)

CXCR4 [3] = assay: as above; type: cell-based, human; details: for enhanced potency in G-coupling (Gi): designed receptor vs WT CXCR4 scaffold, against WT CXCL12 peptide
Protocol: as §2

CXCR4 [4] = assay: Calcium mobilization assay in transfected HEK 293T cells; type: cell-based, human; details: designed receptor vs WT CXCR4, CXCL12-derived peptide, HEK cells
Protocol: as §1

T2 sequence (P61073 whole entry N37A/Y45F/S285M): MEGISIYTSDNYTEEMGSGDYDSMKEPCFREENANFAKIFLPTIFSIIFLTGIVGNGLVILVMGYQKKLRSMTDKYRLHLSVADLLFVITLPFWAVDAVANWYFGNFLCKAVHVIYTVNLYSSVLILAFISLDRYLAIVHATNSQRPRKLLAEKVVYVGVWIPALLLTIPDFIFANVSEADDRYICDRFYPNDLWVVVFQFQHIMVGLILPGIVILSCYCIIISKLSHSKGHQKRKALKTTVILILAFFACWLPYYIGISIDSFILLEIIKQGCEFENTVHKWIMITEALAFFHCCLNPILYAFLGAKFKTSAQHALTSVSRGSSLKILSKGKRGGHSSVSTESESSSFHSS

- calcium release (CXCR4 [1]): Enhanced
B1: L41A CXCR4: CXCR4 point mutant L41A (protein)
chain: MEGISIYTSDNYTEEMGSGDYDSMKEPCFREENANFNKIFAPTIYSIIFLTGIVGNGLVILVMGYQKKLRSMTDKYRLHLSVADLLFVITLPFWAVDAVANWYFGNFLCKAVHVIYTVNLYSSVLILAFISLDRYLAIVHATNSQRPRKLLAEKVVYVGVWIPALLLTIPDFIFANVSEADDRYICDRFYPNDLWVVVFQFQHIMVGLILPGIVILSCYCIIISKLSHSKGHQKRKALKTTVILILAFFACWLPYYIGISIDSFILLEIIKQGCEFENTVHKWISITEALAFFHCCLNPILYAFLGAKFKTSAQHALTSVSRGSSLKILSKGKRGGHSSVSTESESSSFHSS

- sensitivity to CXCL12 (CXCR4 [2]): enhanced sensitivity
B2: Cdes1: first-generation combinatorial design CXCR4 receptor variant with binding hotspot motif at TM1/7 interface (protein)
chain: B1 chain with N37A, A41L, Y45F, S285M
modifications: Cdes1

B3: Ldes: CXCR4 variant assembled from activating point mutations on TM1, TM3 and ECL2 of the point mutant library (protein)
chain: B1 chain with A41I, H113N, S178A
modifications: Ldes
- enhanced potency in G-coupling (Gi) (CXCR4 [3]): ~11 fold over WT
- higher Gi efficacy (CXCR4 [3]; designed receptor vs starting CXCR4 WT scaffold, WT CXCL12 peptide): 120%

B4: CLdes: CXCR4 variant combining the H113N mutation with the Cdes2 design (protein)
chain: B1 chain with N37A, A41L, Y45F, H113N, S178F, D181Q, I185V, S285M
modifications: CLdes
notes: CXCR4 variant combining the H113N mutation with the Cdes2 design
- enhanced potency in G-coupling (Gi) (CXCR4 [3]): more than 9 fold over WT

B5: Cdes2: second-generation combinatorial design CXCR4 variant combining the 2 designed binding hotspot motifs (protein)
chain: B1 chain with N37A, A41L, Y45F, S178F, D181Q, I185V, S285M
modifications: Cdes2
- enhanced potency in calcium mobilization (CXCR4 [4]): 3.1 fold over WT
- enhanced potency in G-coupling (Gi) (CXCR4 [3]): 3.2 fold over WT
